Test results as given in patent publication US20200131270A1 (NATIONAL UNIVERSITY CORPORATION HOKKAIDO UNIVERSITY, published 2020).

Legend:
canine CD80-Ig = biological target: T1, canine CD80-Ig (canine; rabbit); assay: SPR (Biacore X100): cPD-L1-His captured by anti-histidine antibody on CM5 chip, canine CD80-Ig as analyte
T1 construct: extracellular domain;domain: Fc; also called cCD80-Ig; cCD80

canine PD-1-Ig = biological target: T2, canine PD-1-Ig (canine; rabbit); assay: SPR (Biacore X100): cPD-L1-His captured by anti-histidine antibody on CM5 chip, canine PD-1-Ig as analyte
T2 construct: extracellular domain;domain: Fc; also called cPD-1-Ig; cPD-1

B1: canine PD-L1-His (ligand)
chain: FTITVSKDLYVVEYGGNVTMECKFPVEKQLNLFALIVYWEMEDKKIIQFVNGKEDLKVQHSSYSQRAQLLKDQLFLGKAALQITDVRLQDAGVYCCLIGYGGADYKRITLKVHAPYRNISQRISVDPVTSEHELMCQAEGYPEAEVIWTSSDHRVLSGKTTITNSNREEKLFNVTSTLNINATANEIFYCTFQRSGPEENNTAELVIPERLPVPASERTH
B1 showed a Kd (canine CD80-Ig) of 24.3 nM and a Kd (canine PD-1-Ig) of 25.4 nM.
